Earlier results on 1 substance are cited in article PMC7545370.

One series concerns the target Ubiquitin (Homo sapiens) (UniProt P0CG48).
The next series has as its target KAP1 RBCC (Homo sapiens) (UniProt Q13263).

SMARCAD1 CUE1, sequence (Q9H4L7 154-202): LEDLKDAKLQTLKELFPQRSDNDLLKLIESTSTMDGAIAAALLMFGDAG
KAP1 RBCC (Homo sapiens), sequence (Q13263 62-379): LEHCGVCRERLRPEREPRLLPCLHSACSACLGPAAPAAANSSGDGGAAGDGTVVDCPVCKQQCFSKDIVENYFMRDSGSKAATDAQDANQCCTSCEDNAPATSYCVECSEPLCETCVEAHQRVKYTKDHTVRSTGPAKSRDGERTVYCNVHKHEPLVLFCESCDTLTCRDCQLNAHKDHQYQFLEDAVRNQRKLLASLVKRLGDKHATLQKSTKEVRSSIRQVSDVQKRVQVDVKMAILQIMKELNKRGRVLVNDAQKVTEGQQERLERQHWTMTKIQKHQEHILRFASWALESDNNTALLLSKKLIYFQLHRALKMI

As a reminder, the Kd is the equilibrium constant for the complex coming apart. On to SMARCAD1 CUE1 (from UniProt Q9H4L7), for which the Kd with Ubiquitin (Homo sapiens) was 952 µM; with KAP1 RBCC (Homo sapiens), 0.158 µM.
